Values of other authors, collected in patent US20240238439A1, “HER3-BINDING ANTIBODY-DRUG CONJUGATE” (Hummingbird Bioscience Pte. Ltd., priority 2023, published 2024).

How the values were obtained:
[1] = system: HER3-mediated signalling in HER3-expressing human cancer cell line-derived xenograft tumors; conditions: in vivo
[2] = molecular target: interaction between HER3 and EGFR (Homo sapiens, UniProt P21860)
[3] = system: HER3 overexpressing cells
human HER3 = human HER3 (Homo sapiens, UniProt P21860)
[4] = system: xenograft tumors derived from a human cancer cell line harbouring an NRG gene fusion
cancer cells = conditions: in vitro
[5] = molecular target: interaction between HER3 and HER2 (Homo sapiens, UniProt P21860); conditions: dose-dependent
[6] = Differential Scanning Fluorimetry
[7] = system: thyroid cancer cell lines harbouring the V600E BRAF mutation
[8] = system: human cancer cell line-derived xenograft tumors; conditions: in vivo
[9] = system: HER3-mediated signalling in cells of HER3-expressing cancer cell lines; conditions: in vitro

- binding to human HER3 (human HER3): high affinity and specificity
- cross-reactivity with other human EGFR family members (human HER3): no cross-reactivity
- ligand dependence of binding to HER3 (human HER3): ligand (NRG)-independent
- affinity of binding to human HER3 (human HER3; in the presence or absence of human NRG1): subpicomolar
- binding to cyno, mouse and rat HER3 (cyno, mouse and rat HER3): high-affinity binding
- inhibition of interaction between HER3 and HER2 [5]: highly potent
B1: 10D1F hIgG1: HER3-binding antibody clone 10D1F (VH SEQ ID NO:33, VL SEQ ID NO:58) in human IgG1/Vκ format (antibody, V domains shown)
VH: QVQLQESGPGLVKPSQTLSLTCTVSGYSITSGYSWHWIRQHPGKGLEWIGSIRYSGGTDYNPSLKSLVTISADTSKNQFSLKLSSVTAADTAVYYCARMTTAPWYPFDYWGQGTTVTVSS
VL: DIQMTQSPSSVSASVGDRVTITCKASQIVGSNVAWYQQKPGKAPEPLIYSASYLYSGVPSRFSGSGSGTDFTLTISSLQPEDFATYYCQQYSSHPLTFGQGTKLEIK
- HER3-mediated signalling [1]: inhibits HER3-mediated signalling
- inhibition of interaction between HER3 and EGFR [2]: inhibits interaction between HER3 and EGFR in a dose-dependent fashion
- ADCC activity [3]: induces ADCC activity against HER3 overexpressing cells in a dose-dependent manner
- growth of xenograft tumors [4]: extremely potent at inhibiting growth
- growth of cancer cells (cancer cells): potently inhibits the growth of cancer cells in vitro
- melting temperature [6]: 70.0 °C
- in vitro proliferation [7]: inhibits in vitro proliferation
- growth of xenograft tumors [8]: potently inhibits growth of human cancer cell line-derived xenograft tumors in vivo
- HER3-mediated signalling [9]: inhibits HER3-mediated signalling
